According to the Immune Epitope Database (IEDB):

Legend:
Test in all cases: IEDB peptide-MHC binding, purified MHC/competitive/radioactivity; filed as Kd, often an IC50 or EC50 that approximates it; ≥ and ≤ were set here for values at or beyond the usual limits of such assays
HLA-A*02:06 = molecular target: HLA-A*02:06
HLA-A*02:03 = molecular target: HLA-A*02:03
HLA-A*02:02 = molecular target: HLA-A*02:02
HLA-A*11:01 = conditions: source organism: SARS coronavirus Tor2
HLA-A*31:01 = conditions: source organism: SARS coronavirus Tor2
HLA-A*33:01 = conditions: source organism: SARS coronavirus Tor2
HLA-A*68:01 = conditions: source organism: SARS coronavirus Tor2
HLA-A*03:01 = conditions: source organism: SARS coronavirus Tor2
[1] = source organism: Vaccinia virus WR
[2] = source organism: Dengue virus 4 Philippines/H241/1956
[3] = source organism: Lymphocytic choriomeningitis virus (strain Armstrong)
[4] = source organism: Dengue virus 2 Jamaica/1409/1983
[5] = source organism: SARS coronavirus Tor2

| Sequence | Kd (HLA-A*02:06; [1]) [nM] | Kd (HLA-A*02:03; [1]) [nM] | Kd (HLA-A*02:02; [1]) [nM] | also measured |
| --- | --- | --- | --- | --- |
| RIITILQDI | 2.01 | 5.57 | 583 | – |
| RLFTRCAVI | 2820 | 249 | 93.8 | – |
| IMKDGREIV | – | – | – | Kd (HLA-A*02:03; source organism: Dengue virus 1 Brazil/97-11/1997): 110 nM |
| ITRLEVIGL | 776 | 213 | 5510 | – |
| YAAEMVEYL | 11.8 | 2.07 | 0.524 | – |
| IVNNFITKEI | 14200 | 192 | 1470 | – |
| TQLFKYVPSA | ≥ 69800 | ≥ 70400 | ≥ 70000 | – |
| CLLTDTIESA | 92.1 | 102 | 53 | – |
| RTNDLTALL | 119 | 7.23 | 3.66 | – |
| NQILEENMEV | – | – | – | Kd (HLA-A*02:06; [2]): 29.1 nM |
| LSAEELMSL | – | – | – | Kd (HLA-A*02:06; [3]): 65.9 nM; Kd (HLA-A*02:03; [3]): 705 nM; Kd (HLA-A*02:02; [3]): 64.5 nM |
| LLENKSLTIL | 7430 | 541 | 185 | – |
| CVKYLLDNDI | 7580 | 5670 | ≥ 31800 | – |
| LATLNTLITL | 323 | 338 | 139 | – |
| NVIEDITFL | 25.8 | 300 | 146 | – |
| VLIFILLTA | – | – | – | Kd (HLA-A*02:03; source organism: Dengue virus 2 Peru/IQT2913/1996): 140 nM |
| NTDHPLSINV | 1.64 | 583 | 388 | – |
| DIRDKYMEL | 14500 | 3860 | ≥ 24300 | – |
| TMWHVTRGAV | – | – | – | Kd (HLA-A*02:03; [4]): 382 nM |
| LVVVTTLCAI | – | – | – | Kd (HLA-A*02:06; [2]): 91.2 nM |
| FLAFVVFLLV | – | – | – | Kd (HLA-A*02:06; [5]): 2980 nM; Kd (HLA-A*02:03; [5]): 211 nM; Kd (HLA-A*02:02; [5]): 2.36 nM |
| LAIKNYYRKT | ≥ 69800 | 7180 | ≥ 36800 | – |
| GLAFSIMKSV | – | – | – | Kd (HLA-A*02:03; source organism: Dengue virus 3 Martinique/1243/1999): 11.6 nM |
| LAFVVFLLV | – | – | – | Kd (HLA-A*02:06; [5]): 253 nM; Kd (HLA-A*02:03; [5]): 1270 nM; Kd (HLA-A*02:02; [5]): 458 nM |
| MIGNYFSGVL | 1310 | 761 | 712 | – |
| MMILPAALA | – | – | – | Kd (HLA-A*02:03; source organism: Dengue virus 3 Sri Lanka/1266/2000): 46.4 nM |
| GLDERFVEEL | 2520 | 1210 | 93 | – |
| VIKLVKSLV | 4120 | 126 | 1030 | – |

| Sequence | Kd (HLA-A*02:06; [1]) [nM] | Kd (HLA-A*02:03; [1]) [nM] | Kd (HLA-A*02:02; [1]) [nM] | also measured |
| --- | --- | --- | --- | --- |
| ETIEILRNYL | 0.276 | 1410 | 474 | – |
| ALMTLDDLAI | 24.1 | 29.3 | 14.2 | – |
| KTANNYETI | 329 | 38.5 | 37.2 | – |
| RVSENTGMGM | 146 | 88.9 | 839 | – |
| AARLKRSAT | ≥ 63400 | 10500 | 12500 | – |
| NVFISPASI | 660 | 0.727 | 202 | – |
| SLTTIGTIA | 489 | 3.69 | 1.04 | – |
| ETAIRAGYSI | 17800 | ≥ 29300 | ≥ 25800 | – |
| NTVGMSIVCI | 1210 | 1540 | 3020 | – |
| VLSIPPTAGI | – | – | – | Kd (HLA-A*02:03; [2]): 226 nM |
| RIASILSLET | 751 | 449 | 583 | – |
| AINKCVDIFT | ≥ 38600 | ≥ 26400 | ≥ 25300 | – |
| IVAALVFLI | – | – | – | Kd (HLA-A*02:06; [5]): 1.81 nM; Kd (HLA-A*02:03; [5]): 15.5 nM; Kd (HLA-A*02:02; [5]): 0.138 nM |
| DIMLPESDL | ≥ 31600 | ≥ 35800 | 18500 | – |
| CTEETKRNI | ≥ 77100 | ≥ 78100 | ≥ 77800 | – |
| KTRLFRSPQV | 433 | 984 | 9270 | – |
| VTKRDESSI | ≥ 38300 | 2140 | 8050 | – |
| ALKNSQAELT | ≥ 27200 | 980 | 2120 | – |
| GLKALYETEL | – | – | – | Kd (HLA-A*02:06; source organism: Homo sapiens): ≥ 71200 nM |
| FTSYKRFVT | 12400 | 3380 | 2330 | – |
| ILKDPRIASI | 4000 | 1030 | 3160 | – |
| AAKTPVIVV | ≥ 25400 | 1630 | 1360 | – |
| HVLGRLITV | – | – | – | Kd (HLA-A*02:06; [4]): 8.84 nM |
| GLSSGFYFEI | 1730 | 782 | 48.3 | – |
| DMDFDLNIFM | 5310 | ≥ 5000 | 1150 | – |
| QLQLLMPLK | – | – | – | Kd (HLA-A*11:01): 14.3 nM; Kd (HLA-A*31:01): 1480 nM; Kd (HLA-A*33:01): 2.35 µM; Kd (HLA-A*68:01): 13.4 µM; Kd (HLA-A*03:01): 151 nM |
| IINNAVYTK | – | – | – | Kd (HLA-A*11:01): 17.1 nM; Kd (HLA-A*31:01): 114 nM; Kd (HLA-A*33:01): 19.5 µM; Kd (HLA-A*68:01): 0.484 µM; Kd (HLA-A*03:01): 37.5 nM |
